Data published in patent publication US10039812B2, “Therapeutic for treating clostridium difficile infection” (priority 2012, dated 2018).

Assays:
[1] = test system: C. difficile strain 630Δerm; assay: Inhibition of biofilm formation in TC flasks; settings: 10 mg/ml in the growth media; incubated statically for six days (FIG. 9)
[2] = test system: C. difficile R20291 biofilm; assay: DNase, RNase and proteinase K digests of biofilm in liquid culture; settings: 15 minutes at the concentrations indicated (FIG. 8)
[3] = test system: C. difficile 630Δerm biofilm; assay: DNase, RNase and proteinase K digests of biofilm (floc) in liquid culture
[4] = 1 mg/ml, 15 minute treatment, room temperature

| Molecule | Formation of biofilm in liquid media [1] | Degradation of the biofilm [2] | Degradation of the biofilm (floc produced in static culture) [3, 4] | Degradation of the biofilm (floc produced in static culture) ([3]; concentration increased to 2 mg/ml proteinase K (data not shown)) | Degradation of the biofilm (floc produced in static culture) ([3]; incubation time increased to 24 hours (data not shown)) | Degradation of the biofilm (floc produced in static culture) ([3]; 100 ug/ml, 15 minute treatment, room temperature) |
| --- | --- | --- | --- | --- | --- | --- |
| proteinase K: a proteinase used to digest biofilm constituents (protein, UniProt P06873 106-384, looked up) Proteinase K: AAQTNAPWGLARISSTSPGTSTYYYDESAGQGSCVYVIDTGIEASHPEFEGRAQMVKTYYYSSRDGNGHGTHCAGTVGSRTYGVAKKTQLFGVKVLDDNGSGQYSTIIAGMDFVASDKNNRNCPKGVVASLSLGGGYSSSVNSAAARLQSSGVMVAVAAGNNNADARNYSPASEPSVCTVGASDRYDRRSSFSNYGSVLDIFGPGTSILSTWIGGSTRSISGTSMATPHVAGLAAYLMTLGKTTAASACRYIADTANKGDLSNIPFGTVNLLAYNNYQA | decreases biofilm formation | only degraded by DNase treatment | partial degradation with proteinase K was not observed | partial degradation | partial degradation |  |
| RNase: RNaseA enzyme used to digest biofilm constituents (protein, UniProt P61823 27-150, looked up) Ribonuclease pancreatic: KETAAAKFERQHMDSSTSAASSSNYCNQMMKSRNLTKDRCKPVNTFVHESLADVQAVCSQKNVACKNGQTNCYQSYSTMSITDCRETGSSKYPNCAYKTTQANKHIIVACEGNPYVPVHFDASV |  | only degraded by DNase treatment | did not disrupt the biofilm |  |  | did not disrupt the biofilm |
